PMC7954794, “Protein context shapes the specificity of SH3 domain-mediated interactions in vivo” (Nature Communications, 2021)

Test system: PPIs identified as affected by the SH3 domain deletions
Test: Liquid DHFR-PCA low-throughput validation of PPIs affected by SH3 deletion (Fig. S1D-E)
Type: cell-based, Saccharomyces cerevisiae
Conditions: label = prey, liquid DHFR-PCA, prey _1 = lost, _2 = gained in screen
In short: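 Yeast diploids from DHFR-PCA mating grown 48 h in synthetic complete MSG medium pH 6.0 with NAT and HPH, normalized to 1 OD and diluted to 0.1 OD in liquid PCA selection medium. Growth followed by OD every 15 min for 72 h at 30 °C.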

B1: YHR064C_2 (protein, UniProt P38788 1-538, looked up)
Ribosome-associated complex …: MSSPVIGITFGNTSSSIAYINPKNDVDVIANPDGERAIPSALSYVGEDEYHGGQALQQLIRNPKNTIINFRDFIGLPFDKCDVSKCANGAPAVEVDGKVGFVISRGEGKEEKLTVDEVVSRHLNRLKLAAEDYIGSAVKEAVLTVPTNFSEEQKTALKASAAKIGLQIVQFINEPSAALLAHAEQFPFEKDVNVVVADFGGIRSDAAVIAVRNGIFTILATAHDLSLGGDNLDTELVEYFASEFQKKYQANPRKNARSLAKLKANSSITKKTLSNATSATISIDSLADGFDYHASINRMRYELVANKVFAQFSSFVDSVIAKAELDPLDIDAVLLTGGVSFTPKLTTNLEYTLPESVEILGPQNKNASNNPNELAASGAALQARLISDYDADELAEALQPVIVNTPHLKKPIGLIGAKGEFHPVLLAETSFPVQKKLTLKQAKGDFLIGVYEGDHHIEEKTLEPIPKEENAEEDDESEWSDDEPEVVREKLYTLGTKLMELGIKNANGVEIIFNINKDGALRVTARDLKTGNAVKGEL
Ratio (Deletedscore / WTscore) (bait BZZ1-2): 1.071

B2: YNL229C_2 (protein, UniProt P23202 2-354, looked up)
Transcriptional regulator URE2: MNNNGNQVSNLSNALRQVNIGNRNSNTTTDQSNINFEFSTGVNNNNNNNSSSNNNNVQNNNSGRNGSQNNDNENNIKNTLEQHRQQQQAFSDMSHVEYSRITKFFQEQPLEGYTLFSHRSAPNGFKVAIVLSELGFHYNTIFLDFNLGEHRAPEFVSVNPNARVPALIDHGMDNLSIWESGAILLHLVNKYYKETGNPLLWSDDLADQSQINAWLFFQTSGHAPMIGQALHFRYFHSQKIASAVERYTDEVRRVYGVVEMALAERREALVMELDTENAAAYSAGTTPMSQSRFFDYPVWLVGDKLTIADLAFVPWNNVVDRIGINIKIEFPEVYKWTKHMMRRPAVIKALRGE
Ratio (Deletedscore / WTscore) (bait HSE1): 0.8445

B3: YIL033C_2 (protein, UniProt P07278 2-416, looked up)
cAMP-dependent protein kinase …: VSSLPKESQAELQLFQNEINAANPSDFLQFSANYFNKRLEQQRAFLKAREPEFKAKNIVLFPEPEESFSRPQSAQSQSRSRSSVMFKSPFVNEDPHSNVFKSGFNLDPHEQDTHQQAQEEQQHTREKTSTPPLPMHFNAQRRTSVSGETLQPNNFDDWTPDHYKEKSEQQLQRLEKSIRNNFLFNKLDSDSKRLVINCLEEKSVPKGATIIKQGDQGDYFYVVEKGTVDFYVNDNKVNSSGPGSSFGELALMYNSPRAATVVATSDCLLWALDRLTFRKILLGSSFKKRLMYDDLLKSMPVLKSLTTYDRAKLADALDTKIYQPGETIIREGDQGENFYLIEYGAVDVSKKGQGVINKLKDHDYFGEVALLNDLPRQATVTATKRTKVATLGKSGFQRLLGPAVDVLKLNDPTRH
Ratio (Deletedscore / WTscore) (bait CYK3): 1.015

B4: YBL071W-A_2 (protein, UniProt Q3E840 1-82, looked up)
Diphthamide biosynthesis …: MSTYDEIEIEDMTFEPENQMFTYPCPCGDRFQIYLDDMFEGEKVAVCPSCSLMIDVVFDKEDLAEYYEEAGIHPPEPIAAAA
Ratio (Deletedscore / WTscore) (bait ABP1): 1.188

B5: YCR030C_2 (protein, UniProt P25623 1-870, looked up)
Suppressor of yeast profilin …: MTEQRTKYADSILTTKSPYEATETIRIRLSQVKLLNKDFYLLFKELANLKRNYAQQLRKIIAENEDITKILNAQMIESNVLTPQEMSAFRFNSLGELRNVWDTVIEELKSDLKSSTEYYNTLDQQVVRELKESVENNTSWRESKDLHSKLSKNAASIEHYSKNNENSSHLEEARRQWDQQSPYLFELFETIDYNRLDTLKNCMLRFQTSFSDYLLNTTKECETVMTKFLAFEPQSEIDRFAKDASQYNFQLSSSSKEVVPNNASPASATGARPVSVSNGAANTEREKKSPQKDKRKSAFGNIGHRLASASSSLTHNDLMNNEFSDSTNNSSLKSKKSSHTLRSKVGSIFGRNKTKNKRQQQSSSNSHIQASITETPNNSSTRVSSTATSSIYQKQRRPTYSSSKSNNWTPGEASDTPPLPPHATPKNVDAPVTADTPPAQTFTPSEVPPSTPQQSSPPTAKEPDSSNLPKTVPISISQPPLQPQSKTKPLPVEPASPSISLPTATVDNQPSGQVDSRPLHIRAPALPPSRKQNFIHNRDSQLYDSLPNHGSGATPTSSSLSSIPQERPVSTLSSQITGELRELNPQATGSSTSLVGQSLFQHSSLDTSQFGLNASIAEVLNASFKDGMLQNSQLIGEIALNYLPNSVMNSPLPIGINLRINNGAKFEKVILNQAFIERVAPEEFKVNPSFIDSRTLGAIKYSIKEPIAPIVIHPVWRFESHQASVVLTVKMSPSLPDEISQIVIEDLVVFVNIDGANATSALSKPQGSFSKEKKRITWRFKEPVVLTRNGEGQRLIARFITDGLAHESAKGVITKFTISETDNVALPHSGAGSGITLTCQELDENNPFGGEWLDVNTKRTLTTGNYHGLA
Ratio (Deletedscore / WTscore) (bait BZZ1-2): 1.115

B6: YBR177C_2 (protein, UniProt P38295 1-451, looked up)
Medium-chain fatty acid ethyl …: MSEVSKWPAINPFHWGYNGTVSHIVGENGSIKLHLKDNKEQVDFDEFANKYVPTLKNGAQFKLSPYLFTGILQTLYLGAADFSKKFPVFYGREIVKFSDGGVCTADWLIDSWKKDYEFDQSTTSFDKKKFDKDEKATHPEGWPRLQPRTRYLKDNELEELREVDLPLVVILHGLAGGSHEPIIRSLAENLSRSGRFQVVVLNTRGCARSKITTRNLFTAYHTMDIREFLQREKQRHPDRKLYAVGCSFGATMLANYLGEEGDKSPLSAAATLCNPWDLLLSAIRMSQDWWSRTLFSKNIAQFLTRTVQVNMGELGVPNGSLPDHPPTVKNPSFYMFTPENLIKAKSFKSTREFDEVYTAPALGFPNAMEYYKAASSINRVDTIRVPTLVINSRDDPVVGPDQPYSIVEKNPRILYCRTDLGGHLAYLDKDNNSWATKAIAEFFTKFDELVV
Ratio (Deletedscore / WTscore) (bait LSB3): 1.519

B7: YDL225W_2 (protein, UniProt Q07657 2-551, looked up)
Seventh homolog of septin 1: STASTPPINLFRRKKEHKRGITYTMLLCGPAGTGKTAFANNLLETKIFPHKYQYGKSNASISSNPEVKVIAPTKVVSFNSKNGIPSYVSEFDPMRANLEPGITITSTSLELGGNKDQGKPEMNEDDTVFFNLIMTHGIGENLDDSLCSEEVMSYLEQQFDIVLAEETRIKRNPRFEDTRVHVALYFIEPTGHGLREVDVELMKSISKYTNVLPIITRADSFTKEELTQFRKNIMFDVERYNVPIYKFEVDPEDDDLESMEENQALASLQPFAIITSDTRDSEGRYVREYPWGIISIDDDKISDLKVLKNVLFGSHLQEFKDTTQNLLYENYRSEKLSSVANAEEIGPNSTKRQSNAPSLSNFASLISTGQFNSSQTLANNLRADTPRNQVSGNFKENEYEDNGEHDSAENEQEMSPVRQLGREIKQENENLIRSIKTESSPKFLNSPDLPERTKLRNISETVPYVLRHERILARQQKLEELEAQSAKELQKRIQELERKAHELKLREKLINQNKLNGSSSSINSLQQSTRSQIKKNDTYTDLASIASGRD
Ratio (Deletedscore / WTscore) (bait BZZ1-2): 1.566 | Ratio (Deletedscore / WTscore) (bait HOF1): 1.663

B8: YML035C_2 (protein, UniProt P15274 1-810, looked up)
AMP deaminase: MDNQATQRLNDLSLEPAPSHDEQDGSGLVIDIDQRKIGDEQAGVVVDDETPPLEQQDSHESLAADSRNANFSYHENQQLLENGTKQLALDEHDSHSAILEQPSHSTNCSSSNIAAMNKGHDSADHASQNSGGKPRTLSASAQHILPETLKSFAGAPVVNKQVRTSASYKMGMLADDASQQFLDDPSSELIDLYSKVAECRNLRAKYQTISVQNDDQNPKNKPGWVVYPPPPKPSYNSDTKTVVPVTNKPDAEVFDFTKCEIPGEDPDWEFTLNDDDSYVVHRSGKTDELIAQIPTLRDYYLDLEKMISISSDGPAKSFAYRRLQYLEARWNLYYLLNEYQETSVSKRNPHRDFYNVRKVDTHVHHSACMNQKHLLRFIKHKLRHSKDEKVIFRDGKLLTLDEVFRSLHLTGYDLSIDTLDMHAHKDTFHRFDKFNLKYNPIGESRLREIFLKTNNYIKGTYLADITKQVIFDLENSKYQNCEYRISVYGRSLDEWDKLASWVIDNKVISHNVRWLVQIPRLYDIYKKTGIVQSFQDICKNLFQPLFEVTKNPQSHPKLHVFLQRVIGFDSVDDESKVDRRFHRKYPKPSLWEAPQNPPYSYYLYYLYSNVASLNQWRAKRGFNTLVLRPHCGEAGDPEHLVSAYLLAHGISHGILLRKVPFVQYLYYLDQVGIAMSPLSNNALFLTYDKNPFPRYFKRGLNVSLSTDDPLQFSYTREPLIEEYSVAAQIYKLSNVDMCELARNSVLQSGWEAQIKKHWIGKDFDKSGVEGNDVVRTNVPDIRINYRYDTLSTELELVNHFANFKRTIEEK
Ratio (Deletedscore / WTscore) (bait HSE1): 1.186 | Ratio (Deletedscore / WTscore) (bait LSB3): 1.062
